# Measurements published in patent US20080279855A1, “Dna Replication Modulating Peptides, Nucleic Acids Encoding Them, and Their Use in Pharmaceutical Compositions” (CENTRE NATIONAL DE LA RECHERCHE SCIENTIFIQUE, priority 2004, published 2008).
# “Also recorded” adds a separate entry of the source.
# B1: wild type protein: total amino acid sequence of human Geminin, about 25 kDa negative regulator of genome replication (protein, listed as Homo sapiens)
# chain: MNPSMKQKQEEIKENIKNSSVPRRTLKMIQPSASGSLVGRENELSAGLSKRKHRNDHLTSTTSSPGVIVPESSENKNLGGVTQESFDLMIKENPSSQYWKEVAEKRRKALYEALKENEKLHKEIEQKDNEIARLKKENKELAEVAEHVQYMAELIERLNGEPLDNFESLDNQEFDSEEETVEDSLVEDSEIGTCAEGTVSSSTDAKPCI
# B2: HsGem(80-212): form of HsGeminin (residues 80-212) with the coiled-coil domain plus the entire carboxy-terminal part (protein)
# chain: GVTQESFDLMIKENPSSQYWKEVAEKRRKALYEALKENEKLHKEIEQKDNEIARLKKENKELAEVAEHVQYMAELIERLNGEPLDNFESLDNQEFDSEEETVEDSLVEDSEIGTCAEGTVSSSTDAKPCI
# B3: HsGem(82-160): deletion mutant of human Geminin, residues 82-160, hexahistidine-tagged, expressed in E. coli (protein)
# chain: TQESFDLMIKENPSSQYWKEVAEKRRKALYEALKENEKLHKEIEQKDNEIARLKKENKELAEVAEHVQYMAELIERLNG
# modifications: hexahistidine tag
# notes: deletion mutant of human Geminin, residues 82-160, hexahistidine-tagged, expressed in E. coli
# B4: HsGem(76-160): deletion mutant of human Geminin, residues 76-160, hexahistidine-tagged, expressed in E. coli (protein)
# chain: KNLGGVTQESFDLMIKENPSSQYWKEVAEKRRKALYEALKENEKLHKEIEQKDNEIARLKKENKELAEVAEHVQYMAELIERLNG
# modifications: hexahistidine tag
# notes: deletion mutant of human Geminin, residues 76-160, hexahistidine-tagged, expressed in E. coli
# B5: HsGem(82-145): deletion mutant of human Geminin, residues 82-145, hexahistidine-tagged, expressed in E. coli (protein)
# chain: TQESFDLMIKENPSSQYWKEVAEKRRKALYEALKENEKLHKEIEQKDNEIARLKKENKELAEVA
# Tested on: DNA synthesis in Xenopus egg extracts
# Test: in vitro DNA replication (DNA synthesis inhibition) assay in Xenopus egg extracts, alpha-32P dCTP incorporation
# Format: biochemical
# Settings: for inhibition of DNA synthesis (in words): sperm nuclei 3 ng/μl, 2 hours at room temperature
# Procedure: The capacity of a compound to inhibit DNA replication can be measured as described in Example 3, by following the general method given in Blow, J. J. & Laskey, R. A. (1986). Initiation of DNA replication in nuclei and purified DNA by a cell-free extract of Xenopus eggs. Cell 47, 577-87
# FIG. 3A represents the activity of HsGeminin deletion mutants. The DNA synthesis inhibition activity of a series of HsGeminin deletion mutant proteins was measured by incubation in Xenopus egg extracts. […] DNA synthesis was measured by incorporation of a radioactive label DNA precursor (dCTP) upon 2 hours incubation at room temperature. Numbers indicate the amino-acids of the HsGeminin protein. LZ=coiled-coil domain.
# In order to determine whether a homodimer form of Geminin is functional, the Inventors have tested the ability of this peptide to inhibit DNA synthesis in an in vitro DNA replication assay derived from Xenopus eggs^18.
# Briefly, Xenopus egg extracts were prepared as previously described^35. Inhibition assays were carried out in a 20 μl reaction containing 3 ng/μl of sperm nuclei and the indicated amounts of proteins at 1:40 ratio (protein to extract). Replication was measured by incorporation of α^32P dCTP following 2 hours incubation at room temperature.
Molecule,interference with DNA synthesis at concentration much higher than wild-type protein (e.g. 320 nM),inhibition of DNA synthesis (in words),inhibition of DNA synthesis (in words) (listed as HsGeminin (residues 80-212)),inhibition of DNA synthesis (in words) (listed as mutant 82-145)
"HsGem-LZ: residues Leu110-Ala145 of human Geminin with an extra N-terminal capping Thr residue, made by Fmoc solid-phase peptide synthesis",did not interfere with DNA synthesis,non-functional,–,–
B1,–,efficiently inhibited DNA synthesis,–,–
B2,–,keep the ability of Geminin to inhibit DNA synthesis; also recorded: Full inhibition,effective in inhibiting DNA synthesis,–
B3,–,"inhibited DNA synthesis, although less efficiently compared to the wild-type protein",–,–
B4,–,Full inhibition,–,–
B5,–,not functional,–,ineffective in inhibiting DNA synthesis
